According to article PMC3475183 (Cell, 2011):

Target: 3BP2 Tankyrase targeting peptide
Assay: fluorescence polarisation

B1: recombinant N-terminal region of TNKS2 containing all five ARCs (domain or fragment)
chain: AVEPAARELFEACRNGDVERVKRLVTPEKVNSRDTAGRKSTPLHFAAGFGRKDVVEYLLQNGANVQARDDGGLIPLHNACSFGHAEVVNLLLRHGADPNARDNWNYTPLHEAAIKGKIDVCIVLLQHGAEPTIRNTDGRTALDLADPSAKAVLTGEYKKDELLESARSGNEEKMMALLTPLNVNCHASDGRKSTPLHLAAGYNRVKIVQLLLQHGADVHAKDKGDLVPLHNACSYGHYEVTELLVKHGACVNAMDLWQFTPLHEAASKNRVEVCSLLLSYGADPTLLNCHNKSAIDLAPTPQLKERLAYEFKGHSLLQAAREADVTRIKKHLSLEMVNFKHPQTHETALHCAAASPYPKRKQICELLLRKGANINEKTKEFLTPLHVASEKAHNDVVEVVVKHEAKVNALDNLGQTSLHRAAYCGHLQTCRLLLSYGCDPNIISLQGFTALQMGNENVQQLLQEGISLGNSEADRQLLEAAKAGDVETVKKLCTVQSVNCRDIEGRQSTPLHFAAGYNRVSVVEYLLQHGADVHAKDKGGLVPLHNACSYGHYEVAELLVKHGAVVNVADLWKFTPLHEAAAKGKYEICKLLLQHGADPTKKNRDGNTPLDLVKDGDTDIQDLLRGDAALLDAAKKGCLARVKKLSSPDNVNCRDTQGRHSTPLHLAAGYNNLEVAEYLLQHGADVNAQDKGGLIPLHNAASYGHVDVAALLIKYNACVNATDKWAFTPLHEAAQKGRTQLCALLLAHGADPTLKNQEGQTPLDLVSADDVSALLTAAMPP
With B1 the Kd was 500 ± 100 nM.
